# Reference: article PMC2854129, “Spadin, a Sortilin-Derived Peptide, Targeting Rodent TREK-1 Channels: A New Concept in the Antidepressant Drug Design” (PLoS Biology, 2010)
# Where no end group is shown, it is not given here. The star is where a group is joined. 125I = radioactive iodine label on Tyr, [125I]*
# T1: TREK-1 (Mus musculus, UniProt P97438)
# T1 sequence (P97438 1-426): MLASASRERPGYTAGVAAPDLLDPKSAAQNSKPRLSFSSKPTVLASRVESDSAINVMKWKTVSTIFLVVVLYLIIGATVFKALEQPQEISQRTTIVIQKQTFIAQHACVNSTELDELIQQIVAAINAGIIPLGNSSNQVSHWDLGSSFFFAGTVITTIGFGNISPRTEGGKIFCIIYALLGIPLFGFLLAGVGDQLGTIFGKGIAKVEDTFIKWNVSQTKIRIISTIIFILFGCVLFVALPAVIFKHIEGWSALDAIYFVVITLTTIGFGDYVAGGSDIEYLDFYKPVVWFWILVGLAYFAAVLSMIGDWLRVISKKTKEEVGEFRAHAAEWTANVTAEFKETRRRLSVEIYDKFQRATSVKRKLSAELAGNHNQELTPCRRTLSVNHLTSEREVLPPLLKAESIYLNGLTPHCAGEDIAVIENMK
# T2: TREK-1 (Mus musculus, UniProt P97438)
# T2 chain: T1 sequence (P97438 1-426)
# B1: spadin (peptide)
# chain: APLPRWSGPIGVSWGLR
# B2: propeptide N-terminal fragment Gln1-Arg16 1-16 (peptide)
# chain: QDRLDAPPPPAAPLPR
# Assays:
# TREK-1 [1] = experiment: Whole-cell patch-clamp, cultured hippocampal pyramidal neurons; assay type: cell-based, mouse; conditions: 10 µM aa, K+ blockers, 7 out of 70 recorded neurons, at −50 mV
# Protocol: Cortical neurons were prepared from 14 old mouse embryos, whereas hippocampal neurons were prepared from newborn mice. Briefly, dissected brain areas were dissociated and neurons were plated on polylysine-treated 35 or 60 mm dishes and maintained in culture in Neurobasal medium supplemented with B27, Glutamax, and antibiotics for 2 to 3 wk before to be used for electrophysiological or biochemical experiments.
# Supplementary file pbio.1000355.s004.tif: Figure S4 Effects of spadin on cultured pyramidal neurons from hippocampus. (A) Cultured pyramidal neuron from hippocampus, with on top, the patch-clamp pipette. Neurons were chosen according to their morphology. (B) Current recorded in response to ramps of potential obtained in the various conditions indicated (aa, arachidonic acid: 10 µM; Spadin: 1 µM; Fluoxetine: 20 µM). Neurons were recorded in the whole-cell configuration of the patch-clamp technique. In voltage-clamp, ramps of potential from −90 mV to 70 mV were applied every 10 s. The % variation of the current amplitude was always measured at −50 mV. The currents were recorded in response to such ramps in control conditions and in the presence of a cocktail of potassium blockers suitable to isolate the TREK currents (10 mM tetraethyl ammonium (TEA), 3 mM 4-aminopyridine (4-AP), 50 nM charybdotoxin, 10 µM glibenclamide, 100 nM apamin). […] The blocks were reversible. (C) Time course of spadin and fluoxetine effects. Applications are indicated by the horizontal bars. (2.03 MB TIF) Click here for additional data file.
# TREK-1 channel = experiment: Whole-cell patch-clamp, hippocampal CA3 pyramidal neurons in brain slices, wild-type mice; assay type: cell-based, mouse; conditions: 12 out of 28 recorded neurons; K+ blockers; aa 10 µM; mean ± SEM, n = 12
# TREK-1 [2] = target: T1, TREK-1; experiment: Whole-cell patch-clamp, TREK-1 transfected COS-7 cells; assay type: cell-based; set-up: GFP; expressed in transfected cells; host or cells: COS-7 cells, DEAE-dextran transfection; conditions: 10 µM aa
# Protocol: All electrophysiological experiments were done on COS-7 cells seeded at a density of 20,000 cells/35-mm dish 24 h before transfection. Cells were transfected by the classical DEAE-dextran method with TREK-1-GFP plasmids (0.1 µg/µL). Cells were visualized 48–72 h after transfection using fluorescence.
# The whole-cell patch-clamp technique was used to evaluate TREK-1 potassium channel current by using a RK 400 patch-clamp amplifier (Axon Instruments, USA), as previously described. Currents were lowpass filtered at 3 kHz, digitized at 10 kHz using a 12-bit analog-to-digital converter. […] The bath solution contained (in mM) 150 NaCl, 5 KCl, 3 MgCl2, 1 CaCl2, and 10 HEPES, adjusted to pH 7.4 with NaOH; the patch pipette solution contained (in mM) 155 KCl, 3 MgCl2, 5 EGTA, and 10 HEPES, adjusted to pH 7.2 with KOH. Cells were clamped at −80 mV and voltage changes were either applied by ramp (from −100 to 50 mV, 1 s in duration) or by step (from −100 to 40 mV, 1.5 s in duration). Cells were continuously superfused with a microperfusion system. The pipette capacitance was not subtracted from total membrane capacitance and there was no leak subtraction. […]
# Pclamp software was used to analyze currents recorded in the whole-cell mode measured at 0 mV. Results are expressed as means ± SD. […]
# TREK-1 [3] = target: T1, TREK-1; experiment: Competition binding, 125I-spadin, TREK-1 transfected COS-7 cell homogenates; set-up: expressed in transfected cells; host or cells: COS-7 cells, DEAE-dextran transfection; conditions: 0.2 nM 125I-spadin; TREK-1 transfected COS-7 homogenates; Tris-HCl pH 7.4, 0.1% BSA; mean of duplicates from 2 to 5 independent experiments
# Protocol: For competition experiments, homogenates from TREK-1 transfected COS-7 or C13NJ cells were incubated with 0.2 nM ^125I-spadin or ^125I-NT (200,000 cpm in 250 µl) iodinated and purified as previously described. Incubations were performed in 50 mM Tris-HCl, pH 7.4 containing 0.1% BSA in the presence of increasing concentrations of non-radioactive spadin or NT (10^−10 to 10^−5M). Incubations were terminated by addition of 2 ml of ice-cold binding buffer followed by filtration through cellulose acetate filters (Sartorius, Göttingen, Germany) and washing twice with 2 ml of ice-cold buffer. Radioactivity on filters was counted with a gamma-counter.
# [4] = target: TREK-1 channel (KCNK2), transfected in COS-7 cells (mouse) (UniProt P97438)
# NTSR3/Sortilin = NTSR3/Sortilin (UniProt Q99523); conditions: cited from earlier work
# Chain of NTSR3/Sortilin (Q99523 78-755): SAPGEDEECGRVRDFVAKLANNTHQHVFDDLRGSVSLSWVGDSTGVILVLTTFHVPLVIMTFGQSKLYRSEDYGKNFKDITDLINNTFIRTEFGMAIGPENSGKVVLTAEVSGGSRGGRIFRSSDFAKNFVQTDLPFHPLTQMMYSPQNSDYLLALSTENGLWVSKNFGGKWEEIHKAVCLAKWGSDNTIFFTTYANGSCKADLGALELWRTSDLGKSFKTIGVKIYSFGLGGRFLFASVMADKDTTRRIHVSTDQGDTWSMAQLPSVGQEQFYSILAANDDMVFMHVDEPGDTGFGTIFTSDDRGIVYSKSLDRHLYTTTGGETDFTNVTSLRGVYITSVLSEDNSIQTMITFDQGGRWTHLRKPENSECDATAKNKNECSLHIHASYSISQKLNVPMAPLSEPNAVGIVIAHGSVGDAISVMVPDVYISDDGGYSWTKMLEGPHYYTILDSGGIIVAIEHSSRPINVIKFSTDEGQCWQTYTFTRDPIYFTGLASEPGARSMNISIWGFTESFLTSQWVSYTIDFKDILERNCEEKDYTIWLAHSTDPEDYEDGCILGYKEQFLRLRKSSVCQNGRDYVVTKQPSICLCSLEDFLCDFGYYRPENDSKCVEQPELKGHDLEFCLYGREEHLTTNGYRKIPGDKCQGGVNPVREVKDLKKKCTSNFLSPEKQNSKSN
# [5] = test system: non-transfected COS-7 cells; experiment: 125I-spadin binding to non-transfected COS-7 cells
# TREK-1 [6] = target: T1, TREK-1; experiment: Association kinetics and internalization of 125I-spadin on whole COS-7 cells expressing TREK-1; assay type: cell-based; set-up: expressed in transfected cells; host or cells: COS-7 cells, DEAE-dextran transfection; conditions: 37°C; for intracellular (acid-NaCl wash resistant) fraction of total bound 125I-spadin: 30 min, acid-NaCl wash 2 min
# Protocol: Cells, grown on 12 mm multiwell-dishes, were incubated with 0.2 nM ^125I-spadin for various times at 37°C in an Earle's Tris-Hepes buffer (cell binding buffer). Incubations were terminated by washing cells twice with the binding buffer or with the same buffer containing 0.5 M NaCl, pH 4, for 2 min to remove non-sequestrated radioactivity (acid-NaCl wash). Cells were harvested with 1 ml of 0.1 N NaOH and counted in a gamma-counter. Non-specific binding was determined in the presence of 10 µM unlabeled spadin.
# TREK-1 [7] = target: T2, TREK-1; experiment: radioligand binding
# TREK-1 [8] = target: T2, TREK-1; experiment: radioligand competition
molecule,measurement,setting,value
CCCCC/C=C\C/C=C\C/C=C\C/C=C\CCCC(=O)O [arachidonic acid],increase of remaining current by arachidonic acid,TREK-1 [1],about 50%
same,increase in amplitude of remaining current by arachidonic acid,TREK-1 channel,23.3%±4.8%
same,activation of TREK-1 basal channel activity,TREK-1 [2]; as previously described [21],strongly and reversibly activated
"QDRLDAPPPPAAPLPR [Gln1-Arg16, N-terminal fragment of the full length propeptide]",affinity for TREK-1,TREK-1 [3],1 µM
same,effect on aa-induced current increase,"TREK-1 [2]; after 90 s of application, Figure S2",unable to inhibit the current increase
full length propeptide of NTSR3/Sortilin (Gln1-Arg44),"block of the arachidonic acid-stimulated TREK-1 current at 0 mV, whole-cell patch clamp, TREK-1 transfected COS-7 cells, 500 nM propeptide",[4],41%
sortilin propeptide 1-44 (from UniProt Q99523),Kd,NTSR3/Sortilin,5 nM
"^125I-spadin: monoiodinated spadin (on Tyr0), HPLC purified (Y(125I)APLPRWSGPIGVSWGLR)",125I-spadin binding,[5],totally devoid of ^125I-Spadin binding
same,time to plateau of cell-associated radioactivity,"TREK-1 [6]; 0.2 nM 125I-spadin, whole COS-7 cells expressing TREK-1",≤ 30 min
same,intracellular (acid-NaCl wash resistant) fraction of total bound 125I-spadin,TREK-1 [6],80%
same,intracellular (acid-NaCl wash resistant) fraction of total bound 125I-spadin,TREK-1 [6]; listed as 125I-labelled spadin,about 80%
B1,Kd,TREK-1 [7],~10 nM
B2,Kd,TREK-1 [8],1000 nM
